Data as given in the nanobody polyreactivity screen of Harvey et al. (2022).

Assay: yeast display, Sf9 membrane polyspecificity reagent, FACS + sequencing; frameworks hold sequencing errors
Procedure, shortened: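 Nanobodies from a synthetic yeast display library (Saccharomyces cerevisiae BJ5465), induced 36–48 hours with galactose, were stained 1 hour at 4 °C with 10% biotinylated, detergent-solubilized Sf9 membrane reagent, enriched on streptavidin microbeads, then FACS-sorted. Anti-HA (expression) and streptavidin (reagent binding) fluorescence set low and high (top ~1%) gates. Polyreactivity labels come from the gate of origin. Genes were colony-PCR amplified, MiSeq 2 × 250 sequenced and filtered by CDR length.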

Sequence | polyreactivity (PSR sort gate)
QVQLVESGGGLVQAGGSLRLSCAASGFTFFRYAMGWYSQAPGKERELVATITRGGSTNYADSVKGRFTISRDNAKNTVYLQMNSLQPVDTAVYYCNKDKKTPTFDYWGQGTQVTVSS | low polyreactivity
QVQLVESGGGLVQAGGSLRLSCPASGSTFTLYVMGWYRPAPGKERELVAAISSNGGRTYYADSVKGRFTISRDNAKNTVYLQMNSLKPEDTAVYDCAAGKIGRYHYDYWGQGTQVTVSS | high polyreactivity
QVQLVESGGGLVQAGGSLRLSCAASGFTFYRNAMGWYRQAPGKERELVARIRGTGGRTYYADSVKGRFTISRDNAKNTVYLQMNSLKPEDTAVYYCNVGRGYSFANGDYWGQGTQVTVSS | high polyreactivity
QVQLVESGGGLVQAGGSLRLSCAASGRTFSTYAMGWYRQSPGKERELVAAITWRGASTYYADSVKGRFTISRDYAKNTVYLQMNSLKPEDTAVYYCATDAPDRTDSDSGFDAGYDYWGQGTQVTLSS | low polyreactivity
QVQLVESGGGLVQAGGSLRLSCAAYGRIFGVYAMGWYRPAPGKERELVAAIERRGGTTYYADSVKGRITISRDMAKNTVYLQLNSLKPEDTAVYYCATGSIAAGHYAYNYWGQGTQVTVSS | high polyreactivity
QVQLVESGGGLVQAGGSHRLSCAASGRIFSYNSMGWYRQAPGKERELVAAITSGGSTYYADSVKGRFTISRDNAKNTVYLQMNSLKPEDTAVYYCAVRSYYFVSRYTRTLYGFDYWGQGTQVTVSS | low polyreactivity
QVQLVESGGGLVQAGGSLRLSCAASGNIFLYYAMGWYRQAPGKERELVADIDASGASTYYADSVKGRFTIARDNAKKTVYLQLNSLTPEDTAVYYCAAEFHWWYAGYDYGYWGQGTQVTVSS | low polyreactivity
QVQLVESVGGLVQAGGSLRLSCAASGSIFAPYAMGWYRQAPGKERELVAAITWSGDSTYYADSVKGRFTISRDNAKNTVYLQMNSLKPEDTAVYYCATEEVYGQGNYWGQGTQVTVSS | low polyreactivity
QVQLVESGGGLVQAGGSLRLSCAASGRIFQFYAMGWYRQAPGKERELVASISASGARTYYADSVKGRFTISRDNAKNTVYLQMNSLNPEDTAVYYCNVVYFDGNPEDYEYWGKGTQVTVSS | high polyreactivity
QVQLVESGGGLVQAGGSLRLSCADSGFTFGVYVMGWYRQAPAKERELVAAISRSGGSTYYADSVKGRFTISRDKAKNTVYLQMNCLKPEETAVYYCNADRLVSYRAGEYDYWGQGTQVTVSS | high polyreactivity
QVQLVESGGGLVQAGGSLRLSCAASGRTFTHNAMGWYRQAPGKERELVAGITSGGSTNYADSVKGRFTISRDNAKNTVYLQMNSLKPEDTAVYYCNKVFFWSRYKGYYYWGQGTQVTVSS | high polyreactivity
QVQLLESGGGLVQAGGSLRLSCAASGFIFYEYAMGWYRQAPGKERELVAAITSGGSTDYADSVKGRFTISRDNAKNTVYLQMNSLKPEDTAVYYCNADLFTGYYWYNYWGQGTQVTVSS | low polyreactivity
QVQLVESGGGLVQAGGSLRLSCAASGSTFVPYAMGWYRQAPGKERELVAAITWSGGDSTYYADSVKGRFTISRDNAKNTVYLQMNSLKPEDTAVYYCAASYLGRKYDYWGQGTQVTVSS | high polyreactivity
QVHLVESDGGLVQAGGSLRLSCAASGIIFGYYVMGWYRQAPGKERELVASITSGGSTNYADSVKGRYTISRDNAKNTVYLQMNSLIPEYTAVYYCATDEPVGRYKHNYYWGQGTKVTVSS | low polyreactivity
QVQLVESGGGLVQAGCSLRISCAASGFTFAHNEMGWSRQAPGKERELVAAISSRGGRTFYADSVKGRFTISRDNAKKTVYLQMNSLKPEDTAVDYCNRVRSVQYDYWGQGSQVTVSS | high polyreactivity
QVQLVESGGGLVQAGGSLRLSCAASGVIFRRYAMGWYREAPGKERELVAAMSSSGGRTTYADSVNGRFTISRDNAKNTVYIQMNSLKPEDTAVYYCNADLWPGNHDGYWGQGTQVTVSS | low polyreactivity
QVQLVESWGGLVQAGGSLRLSCAASGITFFFYAMGLYRLAPGKERELVASITWEDGSTYYADSVKGRFTISRDNANNTVYLQKNSLKPEDTAVYYCAADFEAGGYSLDYWGQGTQVTVSS | low polyreactivity
QVQLVESGGGLVQAGGSLRLSCAASGFTFYYYTMGWYRQAPGKERELVAAITLSGSTTYYADSVKGRFTISRDNAKNTVYLQMNSLKPEDTAVYYCAAGFSYEWGYPTFDYWGQGTQVTVSS | low polyreactivity
QVQLVESGGGLVQAGGSLRLSCAASGRTSGFNTMGWYRPAPGKEREMVAAISFSGGSTYYADSVKGRFTISRDNAKNTVYLQMNSLKPEDTAVYYCNALYRYLYRSGDYWGQGTQVTVSS | low polyreactivity
QVQLVESGGGLVQAGGSLRLSCAASGRTFWYNAMGWYRQAPGKERELVAAISSTGGRTYYADSVKGRFTISRDNAKNTVYLQMNSLKPEDTAVYYCAARQLSSHYDYWGQGTQVTVSS | low polyreactivity
QVQLVESGGGLVQAGGSLRLSCAASGRTFKVYAMGWYRPAPGKERELVAAISGSGGSTYYADSVKGRFTISRDNAKNTVYLQMNSLKPEDTAVYYCATDPSAPYTQLSSYYYWGQGTQVTVSS | low polyreactivity
QVQLVESGGGLVQAGGSLRLSCAASGSTFSRYAMGWYRQAPGKERELVAAITRSGGSTYYADSVKGRFTISRDNAKNTVYLQMNSLKPEDTAVYYCAASRGRGGYGFDYWGQGTQVTVSS | high polyreactivity

Sequence | polyreactivity (PSR sort gate)
QVQLVESGGGLVQAGGSLRLSCAASGSTFAGNAIGWYRQAPGKERELVAAITSGTGTHYADSVKGRFTISRDNAKNSVYLQMNSLKPEDTAVYYCAAEVWSWAGIWGYEYWGQGTQVTVSS | low polyreactivity
QVQLVESGGGLVQAGGSLRLSCAASGLTFRYYAMGWYREAPGKEREFVAAITSSGGSTDYADSVKGRFTISRDNAKNSVYLQMNSVKPDDTGVFYCAAATNTQESVPMYYWGQGTQVTVSS | low polyreactivity
QEQLVESGGGLVQAGGSLRLSCAASGSILRYYAMRWYRQPPGKEREFVAAISWSGTSTYYADSVKGRFTISRDIAKNTVYLQLNSLKPEDTSVYYCAARTYYVPYYYCGQGTQVTVSS | high polyreactivity
QVQLVESGGGLVQAGGSLRLSCAASGNILYFYDMGRYRQAPGKERELVAVITGGGGSTYYADSVKGRYTISRDNAKNTVYLQMNRLKPEDTAVYYWAALPWFPDEEYDYWGHGTQVTVSS | high polyreactivity
QVQLVESGGGLVQAGGSLRLSCAASGSIFGRNAMGWYRQAPGKEREIVAAISQRGGRTYYADSVKGRFTISRDNAKNTVYLQMNRLKPEDTAVYYCAATYTRVPNRFYYWGQGTQVTVSS | high polyreactivity
QVKLVESGGGIVQAGGSLRLSCAASGIIFARNAMGCYRQAPGKERELVAGINGGRKNYADSVKGSFTISRDNAKNTVYLQMNSLKPEDSAVYYCAARNKGTLYRYGYWGQGTQVTVSS | high polyreactivity
QVHLVESGGGLVQAGGSLGLSCAASGFTFTRNTMGWYRQAPGKERELVAAITRGGSTNYADSVKGRFTISRDNAKNTVYLQMNSLKPEDTAVYYCNKGRNVVLVRTADDYWGQGTQVTVSS | low polyreactivity
QVQLVESGGGLVQAGGSLRLSCAASGSTFLGYAMGWYRQAPGKERELVAAITYSGGGTYYADSVKGRFTISRDNAKNTVYLQMNSLKPEDTAVYYCNADVSWSYSVYREYGMDYWGQGTQVTVSS | low polyreactivity
QVQLEETGGGLVQAGGSLRLTCAASVRTFRGNVMGWYREAPGKERELVAAINWTGSSTYYADSVKGRFTISRDNAKNSVYLQMNSLKPEDTAVYYCATRSGPHGGGLPRDYWGQGTQVTVSS | low polyreactivity
QVHLVDSGGGLVQAGGSLRLTCAASGITFYRYAMGWYRQAPWKERELVAAITGGGRTYYADSVKGRFTISRDNAKNTVYLQMNSLKPEDTAVYYCNVRTLHSVRGYDYWGQGTQVTVSS | high polyreactivity
QVQLVESGGGLVQAGGSLRLSCAASGFIFYYNAMGWYRQAPGKERELVAAITRSGGSTFYADSVKGRFTISRDNAKNTVYLQMNSLKPEDTAVYYCAAKGNPYRVPGSSYPKVNYWGQGTQVTVSS | high polyreactivity
QVQLVESGGGLVQAGGSLRLSCAASGRIFRYYTMGWYRPAPGKERELVAAISWTGASTYYADSVKGRFTISRDNAKNTVYLQMNSLKPEDTAVYYCAADSYIAHHGFAMDYWGQGTQVTVSS | low polyreactivity
QVQLVESGGGLVQAGGSLRLSGDASGSTFIYNAMGWYRQAPGKERELVAAIDWSGGDTYYADSVKGRFTISRDKAKNTVYLLMNSLKPEDTAVYYCAAVKRGGFYWGQGTQVTVSS | high polyreactivity
QVQLVESGGGLVQAGGSLRLSCAASGRIFVGNTMGWYRQAPGKDRELVAAISWRGRTSYADSVKGRFTISRDNAKNTVYLQMNSLKPEDTAVYYCNAEHAGASRYYYIANWMDYWGQGTQVTVSS | low polyreactivity
QVQLVESGGGLDQAGGSLRLSCAASGSIFYYYVMGWYRQAPGKERELVAAITNSDRTYYADSVKGRFTISRDNAKNTVYLQMNSLKLEDTAVYYCNADWFDQYYRDGLRGRYGYWRQGTQVTVSS | low polyreactivity
QVQLVESCGGLVQAGGSLRLSCAASGSIFPFNAMGWYRQAPGKQRELVAAITRSGGSTYYADSVKGRITISRYIAKNSVYLQMNSLKPQDTAVYYCATDPEWPLPAYYYWGQGTQVTVSS | low polyreactivity
QVQLVESGGGLVQAGGSLRLSCAASGFTIRWYLMGWYRQAPGKERELVAAISWSGDRTYYADSVKGRFTISRDNAKNTVYLQMNSLKPEDTAVYYCNSLSAFQVDNYDYWGQGTQVTVSS | high polyreactivity
QVQLVESGGGLVQAGGSLRLSCAASGRIYKYYAMGWYRQAPGKETELVAAISISGTNTYYADSVKGRFTISRDNAKNTVYLQMNSLKPEDTAVFYCAARQYTRGYEREYWGQGTQVTVSS | high polyreactivity
QVQLVESGGGLVQAGGSLRLSCAASGYIFDIYAMGWYRQAPGKERELVAVITRSGGGTYYADSVKGRFTISRDNAKKTVYLQMNSLKPEDTAVYYCAAESYVYGGSDYDYWGQGTQVTVSS | low polyreactivity
QVQLVESGGGLVQAGGSLRLSCAASGSIIKRNAKGWYRQAPGKERELVASISSGGSTKYADSVKGRFTISRDNAKNTVYLQMNSLKPEDTAVYYCAKRSSQTRRAYDYWGQGTQVTVSS | low polyreactivity
QVQLVESGGGLVQAGGSLRLSCAASGRIFGWNAMGWYRQAPGKERELVAGISSSGGSTYYADSVKGRFTISRDNAKNTVYLQMNSLKPEDTAVYYCARRHYVGYYGYYYWGQGTQVTVSS | high polyreactivity
